T1: p63γ (Homo sapiens, UniProt Q9H3D4)
T1 construct: expressed in transfected cells; host or cells: Saos-2
T1 sequence (Q9H3D4 1-487 isoform Q9H3D4-5): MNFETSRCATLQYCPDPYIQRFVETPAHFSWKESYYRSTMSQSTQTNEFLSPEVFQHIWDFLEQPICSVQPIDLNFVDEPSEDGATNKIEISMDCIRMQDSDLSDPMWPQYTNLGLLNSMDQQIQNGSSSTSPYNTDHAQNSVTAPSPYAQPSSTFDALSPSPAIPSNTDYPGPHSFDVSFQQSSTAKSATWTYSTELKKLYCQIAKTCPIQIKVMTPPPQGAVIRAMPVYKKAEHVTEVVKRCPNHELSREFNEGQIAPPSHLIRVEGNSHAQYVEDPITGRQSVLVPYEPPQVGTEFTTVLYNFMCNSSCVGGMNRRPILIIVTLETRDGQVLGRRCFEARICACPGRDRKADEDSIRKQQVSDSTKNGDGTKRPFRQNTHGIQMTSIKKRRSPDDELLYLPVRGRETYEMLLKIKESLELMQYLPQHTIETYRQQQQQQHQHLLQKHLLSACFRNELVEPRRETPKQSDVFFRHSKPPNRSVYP

T2: p73α (Homo sapiens, UniProt O15350)
T2 construct: expressed in transfected cells; host or cells: H1299 and Saos-2; part of the results from in vitro translation
T2 sequence (O15350 1-636): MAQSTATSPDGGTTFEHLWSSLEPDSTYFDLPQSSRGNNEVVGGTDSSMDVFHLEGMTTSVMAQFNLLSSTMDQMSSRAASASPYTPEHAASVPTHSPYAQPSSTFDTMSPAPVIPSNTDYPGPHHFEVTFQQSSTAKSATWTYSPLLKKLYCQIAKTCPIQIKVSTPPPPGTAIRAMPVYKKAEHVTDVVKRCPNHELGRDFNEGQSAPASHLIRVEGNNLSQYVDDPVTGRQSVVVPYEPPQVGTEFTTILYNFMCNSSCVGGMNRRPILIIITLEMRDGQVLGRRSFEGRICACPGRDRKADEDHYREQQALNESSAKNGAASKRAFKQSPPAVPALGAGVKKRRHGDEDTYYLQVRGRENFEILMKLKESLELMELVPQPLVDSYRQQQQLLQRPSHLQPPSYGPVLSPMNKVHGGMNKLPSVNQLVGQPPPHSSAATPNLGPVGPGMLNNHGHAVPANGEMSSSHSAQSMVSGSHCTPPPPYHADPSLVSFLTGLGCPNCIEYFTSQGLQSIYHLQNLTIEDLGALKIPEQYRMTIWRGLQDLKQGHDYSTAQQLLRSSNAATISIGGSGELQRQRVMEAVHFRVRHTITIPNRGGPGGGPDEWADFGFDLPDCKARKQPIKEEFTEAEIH


Assays:
[1] = target: T1, p63γ; assay: Transient luciferase reporter assay of p63γ transactivation function; assay type: cell-based; conditions: FIG. 14C
Description: (§1) To determine the amount of protein expression, Saos-2 cells (5×10^5) were plated 24 hours prior to transfection in 6 cm dishes. […] To determine the amount of gene activation, after transfection, the cells were lysed in Reporter Lysis Buffer 16-24 hours post-wash and assayed using the Luciferase Assay kit (Promega, Wis.). The fold activation of a particular reporter was determined by the activity of the transfected plasmid above the activity of vector alone.
(§2) The expression level of transfected proteins was detected using 40 μg of the respective lysates using the antibodies V5, DX.5410, DO1, 4A4 and p73. […] Results were derived from at least three independent experiments.

[2] = target: T2, p73α; assay: Transient luciferase reporter assay of p73α transactivation function; assay type: cell-based; conditions: for stimulation of the transactivation function of p73α on the Bax promoter: Example 16, FIGS. 14A and 14B; for transactivation function of p73α on the mdm2 promoter: FIG. 14C
Description: as §1, §2

[3] = tested on: Saos-2 cells; assay: Apoptosis by flow cytometry (CD20-gated, sub-G1 DNA content) in transfected Saos-2 cells; assay type: cell-based; conditions: for effect on apoptotic function of p53 mutants 181L and 181C: FIG. 6A; for increase in percentage of cells that die of apoptosis with E2F1: co-expression with E2F1, FIG. 4B; for apoptotic function of p63γ and p73α: co-expression, FIG. 15; for apoptosis when expressed alone: no p53 co-expressed; for effect on apoptosis induced by p53H175-L: transcriptionally inactive, mitochondria-targeted mutant p53, FIG. 9A
Description: Apoptosis was identified by the expression of the co-transfected cell surface marker CD20, as described in Samuels-Lev et al. (Mol. Cell 8:781-94, 2001, herein incorporated by reference).
The number of apoptotic cells was determined using the methods described in Example 6.
Cells (10^6) were plated 24-48 hours prior to transfection in 10 cm plates. Cells were grown in DMEM supplemented with 10% FCS and transfected with 2 μg of a plasmid expressing CD20 as a transfection marker. Increasing amounts of ASPP1 and ASPP2 were transfected (7.5 μg, 15 μg and 25 μg). 36 hours after the transfection, both attached and floating cells were harvested and analysed using flow cytometry as follows. The transfected cells were gated based on the expression of CD20. The percentage of apoptotic cells was measured by the accumulation of cells with a sub-G1 DNA content derived from at least three individual experiments.
The transfected cells were analyzed by flow cytometry as described in Example 6.

[4] = target: T1, p63γ; assay: Co-immunoprecipitation with p63γ (in vitro translated; transfected H1299 and Saos-2 cells); assay type: binding; conditions: for interaction with p63γ in vitro: in vitro translated proteins, FIGS. 12B and 12C; for interaction with p63γ in vivo: transfected cells, FIGS. 13A and 13C
Description: V5-tagged ASPP1 and ASPP2 proteins were in vitro translated with cold methionine using the TNT T7 Quick coupled Transcription/Translation System (Promega). Cell lysates were incubated at 30° C. for 1 hour and then immunoprecipitated with anti-V5 antibody on protein G agarose beads.
The agarose beads were added to the binding reactions and incubated on a rotating wheel at 4° C. for 16 hours. The beads were then washed with PBS. The bound proteins were released in SDS gel sample buffer and analysed by 10% SDS-polyacrylamide gel electrophoresis (PAGE). The gels were wet transferred on to Protran nitrocellulose membrane and the resulting blots were first incubated with primary antibody and subsequently with the appropriate secondary HRP conjugated antibody (Dako). The blot was exposed to hyperfilm following the use of ECL substrate solution (Amersham Life Science).
Cells were transfected with 1 μg of p63γ or p73α in the presence or absence of 10 μg of ASPP1 or ASPP2. Cell lysate (1 mg) was immunoprecipitated with an antiASPP1 or ASPP2 antibody (see Example 2 and 7). The immunoprecipitates were separated on an SDS gel and the presence of p63 or p73 on the immunoblots detected by mouse monoclonal antibodies 4A4 (Santa Cruz) and ER-15 (Neomarker) to p63 or p73, respectively. The presence of ASPP1 or ASPP2 was detected with antibodies YX.7 and DX5410, respectively.
In some methods, larger amounts of cell lysate (2 mg) were immunoprecipitated with rabbit antibodies ASPP1.88 or BP77 to ASPP1 and ASPP2, respectively. The expression of ASPP1, ASPP2, p63γ and p73α was detected as described above.

Molecule | transactivation function of p63γ on the mdm2 promoter [1] | stimulation of the transactivation function of p73α on the Bax promoter [2] [fold] | transactivation function of p73α on the mdm2 promoter [2] | effect on apoptotic function of p53 mutants 181L and 181C [3] | transfected cells that die of apoptosis ([3]; co-expressed with p53, Example 6, FIGS. 4A and 4C) | increase in percentage of cells that die of apoptosis with E2F1 [3] | apoptotic function of p63γ and p73α [3] | apoptosis when expressed alone [3] | effect on apoptosis induced by p53H175-L [3] | interaction with p63γ in vitro [4] | interaction with p63γ in vivo [4] | percentage of apoptotic cells, co-expressed with p53 ([3]; Example 11, p53 alone […]%) [%]
ASPP1: Apoptosis Stimulating Protein 1, protein of SEQ ID NO: 2, expressed from a transfected plasmid (protein, listed as Homo sapiens) MMPMILTVFLSNNEQILTEVPITPETTCRDVVEFCKEPGEGSCHLAEVWRGNERPIPFDHMMYEHLQIWGPRREEVKFFLRHEDSPTENSEQGGRQTQEQRTQRNVINVPGDKRTEYGVGNPRVELTLSELQDMAARQQQQIENQQQMLVAKEQRLHFLKQQERRQQQSISENEKLQKLKERVEAQENKLKKIRAMRGQVDYSKIMNGNLSAEIERFSAMFQEKKQEVQTAILRVDQLSQQLEDLKKGKLNGFQSYNGKLTGPAAVELKRLYQELQIRNQLNQEQNSKLQQQKELLNKRNMEVAMMDKRISELRERLYGKKIQLNRVNGTSSPQSPLSTSGRVAAVGPYIQVPSAGSFPVLGDPIKPQSLSIASNAAHGRSKSANDGNWPTLKQNSSSSVKPVQVAGADWKDPSVEGSVKQGTVSSQPVPFSALGPTEKPGIEIGKVPPPIPGVGKQLPPSYGTYPSPTPLGPGSTSSLERRKEGSLPRPSAGLPSRQRPTLLPATGSTPQPGSSQQIQQRISVPPSPTYPPAGPPAFPAGDSKPELPLTVAIRPFLADKGSRPQSPRKGPQTVNSSSIYSMYLQQATPPKNYQPAAHSALNKSVKAVYGKPVLPSGSTSPSPLPFLHGSLSTGTPQPQPPSESTEKEPEQDGPAAPADGSTVESLPRPLSPTKLTPIVHSPLRYQSDADLEALRRKLANAPRPLKKRSSITEPEGPGGPNIQKLLYQRFNTLAGGMEGTPFYQPSPSQDFMGTLADVDNGNTNANGNLEELPPAQPTAPLPAEPAPSSDANDNELPSPEPEELICPQTTHQTAEPAEDNNNNVATVPTTEQIPSPVAEAPSPGEEQVPPAPLPPASHPPATSTNKRTNLKKPNSERTGHGLRVRFNPLALLLDASLEGEFDLVQRIIYEVEDPSKPNDEGITPLHNAVCAGHHHIVKFLLDFGVNVNAADSDGWTPLHCAASCNSVHLCKQLVESGAAIFASTISDIETAADKCEEMEEGYIQCSQFLYGVQEKLGVMNKGVAYALWDYEAQNSDELSFHEGDALTILRRKDESETEWWWARLGDREGYVPKNLLGLYPRIKPRQRTLA | failed to stimulate | 3 | failed to stimulate | failed to enhance the apoptotic function of either p53 mutant | Approximately 50% | only an additive increase | enhanced the apoptotic function of p63γ and p73α | lower level of apoptosis | failed to enhance the apoptotic function of p53H175-L | co-immunoprecipitated | co-immunoprecipitated transfected p63γ and p73α | 
ASPP2: full length 1128 amino acid protein, SEQ ID NO: 4 (protein, listed as Homo sapiens) MMPMFLTVYLSNNEQHFTEVPVTPETICRDVVDLCKEPGESDCHLAEVWCGSERPVADNERMFDVLQRFGSQRNEVRFFLRHERPPGRDIVSGPRSQDPSLKRNGVKVPGEYRRKENGVNSPRMDLTLAELQEMASRQQQQIEAQQQLLATKEQRLKFLKQQDQRQQQQVAEQEKLKRLKEIAENQEAKLKKVRALKGHVEQKRLSNGKLVEEIEQMNNLFQQKQRELVLAVSKVEELTRQLEMLKNGRIDSHHDNQSAVAELDRLYKELQLRNKLNQEQNAKLQQQRECLNKRNSEVAVMDKRVNELRDRLWKKKAALQQKENLPVSSDGNLPQQAASAPSRVAAVGPYIQSSTMPRMPSRPELLVKPALPDGSLVIQASEGPMKIQTLPNMRSGAASQTKGSKIHPVGPDWSPSNADLFPSQGSASVPQSTGNALDQVDDGEVPLREKEKKVRPFSMFDAVDQSNAPPSFGTLRKNQSSEDILRDAQVANKNVAKVPPPVPTKPKQINLPYFGQTNQPPSDIKPDGSSQQLSTVVPSMGTKPKPAGQQPRVLLSPSIPSVGQDQTLSPGSKQESPPAAAVRPFTPQPSKDTLLPPFRKPQTVAASSIYSMYTQQQAPGKNFQQAVQSALTKTHTRGPHFSSVYGKPVIAAAQNQQQHPENIYSNSQGKPGSPEPETEPVSSVQENHENERIPRPLSPTKLLPFLSNPYRNQSDADLEALRKKLSNAPRPLKKRSSITEPEGPNGPNIQKLLYQRTTIAAMETISVPSYPSKSASVTASSESPVEIQNPYLHVEPEKEVVSLVPESLSPEDVGNASTENSDMPAPSPGLDYEPEGVPDNSPNLQNNPEEPNPEAPHVLDVYLEEYPPYPPPPYPSGEPEGPGEDSVSMRPPEITGQVSLPPGKRTNLRKTGSERIAHGMRVKFNPLALLLDSSLEGEFDLVQRIIYEVDDPSLPNDEGITALHNAVCAGHTEIVKFLVQFGVNVNAADSDGWTPLHCAASCNNVQVCKFLVESGAAVFAMTYSDMQTAADKCEEMEEGYTQCSQFLYGVQEKMGIMNKGVIYALWDYEPQNDDELPMKEGDCMTIIHREDEDEIEWWWARLNDKEGYVPRNLLGLYPRIKPRQRSLA | failed to stimulate | 6 | failed to stimulate | failed to enhance the apoptotic function of either p53 mutant |  | only an additive increase | enhanced the apoptotic function of p63γ and p73α | lower level of apoptosis | failed to enhance the apoptotic function of p53H175-L | co-immunoprecipitated | co-immunoprecipitated transfected p63γ and p73α | 30

— US20040228866A1, “Suppressor genes” (Ludwig Institute for Cancer Research, priority 2000, published 2004)
